The results in this text go back to US7985567B2, “Host cells and methods for producing 3-methyl-2-buten-1-ol, 3-methyl-3-buten-1-ol, and 3-methyl-butan-1-ol” (The Regents of the University of California, priority 2007, dated 2011).

In this experiment the test system is S. cerevisiae BY4741 transformed with pESC expressing a reductase candidate gene. Put plainly: Screening of reductase candidates for reduction of 3-methyl-2-butenol to 3-methyl-butanol. The format is cell-based, Saccharomyces cerevisiae. Conditions: 3-methyl-2-butenol 1 g/l; relative to controls; FIGS. 4 and 5. The method, then: To identify enzymes with the capability to catalyze the reduction 3-methyl-2-butenol to 3-methyl-butanol the following assay system was employed. 5 ml of synthetic defined medium lacking leucine with 1.8% galactose and 0.2% glucose was inoculated with an overnight culture of S. cerevisiae BY4741 freshly transformed with a vector (pESC) expressing a reductase candidate gene to achieve a final absorbance of 0.5 at 600 nm (A600). The cultures were grown at 30° C. at 200 r.p.m. After 48 hours, 3-methyl-2-butenol (1 g/l) was added to the culture.
Cultures were sampled for isopentanol production after addition of 3-methyl-2-butenol as described in Example 3.

B1: OYE2: Old yellow enzyme family reductase of S. cerevisiae, gene locus YHR179w (protein, UniProt Q03558 2-400, looked up)
NADPH dehydrogenase 2: PFVKDFKPQALGDTNLFKPIKIGNNELLHRAVIPPLTRMRAQHPGNIPNRDWAVEYYAQRAQRPGTLIITEGTFPSPQSGGYDNAPGIWSEEQIKEWTKIFKAIHENKSFAWVQLWVLGWAAFPDTLARDGLRYDSASDNVYMNAEQEEKAKKANNPQHSITKDEIKQYVKEYVQAAKNSIAAGADGVEIHSANGYLLNQFLDPHSNNRTDEYGGSIENRARFTLEVVDAVVDAIGPEKVGLRLSPYGVFNSMSGGAETGIVAQYAYVLGELERRAKAGKRLAFVHLVEPRVTNPFLTEGEGEYNGGSNKFAYSIWKGPIIRAGNFALHPEVVREEVKDPRTLIGYGRFFISNPDLVDRLEKGLPLNKYDRDTFYKMSAEGYIDYPTYEEALKLGWDKN
As to B1, the “isopentanol production from 3-methyl-2-butenol by yeast over-expressing the reductase” value was “significant increase in isopentanol production”.

B2: OYE3: Old yellow enzyme family reductase of S. cerevisiae, gene locus YPL171c (protein, UniProt P41816 2-400, looked up)
NADPH dehydrogenase 3: PFVKGFEPISLRDTNLFEPIKIGNTQLAHRAVMPPLTRMRATHPGNIPNKEWAAVYYGQRAQRPGTMIITEGTFISPQAGGYDNAPGIWSDEQVAEWKNIFLAIHDCQSFAWVQLWSLGWASFPDVLARDGLRYDCASDRVYMNATLQEKAKDANNLEHSLTKDDIKQYIKDYIHAAKNSIAAGADGVEIHSANGYLLNQFLDPHSNKRTDEYGGTIENRARFTLEVVDALIETIGPERVGLRLSPYGTFNSMSGGAEPGIIAQYSYVLGELEKRAKAGKRLAFVHLVEPRVTDPSLVEGEGEYSEGTNDFAYSIWKGPIIRAGNYALHPEVVREQVKDPRTLIGYGRFFISNPDLVYRLEEGLPLNKYDRSTFYTMSAEGYTDYPTYEEAVDLGWNKN
As to B2, the “isopentanol production from 3-methyl-2-butenol by yeast over-expressing the reductase” value was “significant increase in isopentanol production”.
